Tests used:
[1] = target: wild type huBUB3 (plasmid p291-2)
wild type huBUB3 (plasmid p291-2), sequence (chain, as listed by the source): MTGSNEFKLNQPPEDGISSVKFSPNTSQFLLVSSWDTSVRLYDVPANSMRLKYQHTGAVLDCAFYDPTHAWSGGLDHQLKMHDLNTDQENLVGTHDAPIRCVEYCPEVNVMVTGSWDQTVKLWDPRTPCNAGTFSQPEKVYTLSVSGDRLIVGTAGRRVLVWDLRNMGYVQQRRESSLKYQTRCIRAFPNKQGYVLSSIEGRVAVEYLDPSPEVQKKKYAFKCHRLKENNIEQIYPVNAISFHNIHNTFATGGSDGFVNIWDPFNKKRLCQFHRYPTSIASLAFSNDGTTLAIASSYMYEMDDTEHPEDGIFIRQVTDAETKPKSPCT

PHAS-I (Strategene), sequence (Q60876 2-117): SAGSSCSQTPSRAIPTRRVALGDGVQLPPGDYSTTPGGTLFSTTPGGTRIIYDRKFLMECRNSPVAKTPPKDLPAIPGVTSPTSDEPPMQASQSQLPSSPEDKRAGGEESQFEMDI

B1: wild-type huBUB1 (full-length, plasmid p385-1) (protein)
chain: MDTPENVLQMLEAHMQSYKGNDPLGEWERYIQWVEENFPENKEYLITLLEHLMKEFLDKKKYHNDPRFISYCLKFAEYNSDLHQFFEFLYNHGIGTLSSPLYIAWAGHLEAQGELQHASAVLQRGIQNQAEPREFLQQQYRLFQTRLTETHLPAQARTSEPLHNVQVLNQMITSKSNPGNNMACISKNQGSELSGVISSACDKESNMERRVITISKSEYSVHSSLASKVDVEQVVMYCKEKLIRGESEFSFEELRAQKYNQRRKHEQWVNEDRHYMKRKEANAFEEQLLKQKMDELHKKLHQVVETSHEDLPASQERSEVNPARMGPSVGSQQELRAPCLPVTYQQTPVNMEKNPREAPPVVPPLANAISAALVSPATSQSIAPPVPLKAQTVTDSMFAVASKDAGCVNKSTHEFKPQSGAEIKEGCETHKVANTSSFHTTPNTSLGMVQATPSKVQPSPTVHTKEALGFIMNMFQAPTLPDISDDKDEWQSLDQNEDAFEAQFQKNVRSSGAWGVNKIISSLSSAFHVFEDGNKENYGLPQPKNKPTGARTFGERSVSRLPSKPKEEVPHAEEFLDDSTVWGIRCNKTLAPSPKSPGDFTSAAQLASTPFHKLPVESVHILEDKENVVAKQCTQATLDSCEENMVVPSRDGKFSPIQEKSPKQALSSHMYSASLLRLSQPAAGGVLTCEAELGVEACRLTDTDAAIAEDPPDAIAGLQAEWMQMSSLGTVDAPNFIVGNPWDDKLIFKLLSGLSKPVSSYPNTFEWQCKLPAIKPKTEFQLGSKLVYVHHLLGEGAFAQVYEATQGDLNDAKNKQKFVLKVQKPANPWEFYIGTQLMERLKPSMQHMFMKFYSAHLFQNGSVLVGELYSYGTLLNAINLYKNTPEKVMPQGLVISFAMRMLYMIEQVHDCEIIHGDIKPDNFILGNGFLEQDDEDDLSAGLALIDLGQSIDMKLFPKGTIFTAKCETSGFQCVEMLSNKPWNYQIDYFGVAATVYCMLFGTYMKVKNEGGECKPEGLFRRLPHLDMWNEFFHVMLNIPDCHHLPSLDLLRQKLKKVFQQHYTNKIRALRNRLIVLLLECKRSRK
- phosphorylation of an exogenous substrate (33P-ATP kinase reaction of immunopurified FLAG-BUB3/BUB1, SDS-PAGE, autoradiography) (PHAS-I (Strategene)): only PHAS-I demonstrated clear huBUB1-dependent activity as a kinase substrate

B2: full-length HA-epitope tagged huBUB1 (plasmid p396-1) (protein)
chain: GGGGGGMDTPENVLQMLEAHMQSYKGNDPLGEWERYIQWVEENFPENKEYLITLLEHLMKEFLDKKKYHNDPRFISYCLKFAEYNSDLHQFFEFLYNHGIGTLSSPLYIAWAGHLEAQGELQHASAVLQRGIQNQAEPREFLQQQYRLFQTRLTETHLPAQARTSEPLHNVQVLNQMITSKSNPGNNMACISKNQGSELSGVISSACDKESNMERRVITISKSEYSVHSSLASKVDVEQVVMYCKEKLIRGESEFSFEELRAQKYNQRRKHEQWVNEDRHYMKRKEANAFEEQLLKQKMDELHKKLHQVVETSHEDLPASQERSEVNPARMGPSVGSQQELRAPCLPVTYQQTPVNMEKNPREAPPVVPPLANAISAALVSPATSQSIAPPVPLKAQTVTDSMFAVASKDAGCVNKSTHEFKPQSGAEIKEGCETHKVANTSSFHTTPNTSLGMVQATPSKVQPSPTVHTKEALGFIMNMFQAPTLPDISDDKDEWQSLDQNEDAFEAQFQKNVRSSGAWGVNKIISSLSSAFHVFEDGNKENYGLPQPKNKPTGARTFGERSVSRLPSKPKEEVPHAEEFLDDSTVWGIRCNKTLAPSPKSPGDFTSAAQLASTPFHKLPVESVHILEDKENVVAKQCTQATLDSCEENMVVPSRDGKFSPIQEKSPKQALSSHMYSASLLRLSQPAAGGVLTCEAELGVEACRLTDTDAAIAEDPPDAIAGLQAEWMQMSSLGTVDAPNFIVGNPWDDKLIFKLLSGLSKPVSSYPNTFEWQCKLPAIKPKTEFQLGSKLVYVHHLLGEGAFAQVYEATQGDLNDAKNKQKFVLKVQKPANPWEFYIGTQLMERLKPSMQHMFMKFYSAHLFQNGSVLVGELYSYGTLLNAINLYKNTPEKVMPQGLVISFAMRMLYMIEQVHDCEIIHGDIKPDNFILGNGFLEQDDEDDLSAGLALIDLGQSIDMKLFPKGTIFTAKCETSGFQCVEMLSNKPWNYQIDYFGVAATVYCMLFGTYMKVKNEGGECKPEGLFRRLPHLDMWNEFFHVMLNIPDCHHLPSLDLLRQKLKKVFQQHYTNKIRALRNRLIVLLLECKRSRK
- autophosphorylation of HA-huBUB1 [1]: Co-translation of huBUB3 may stimulate this autophosphorylation activity.
